According to PMC8550178, “Enzymatically synthesized exopolysaccharide of a probiotic strain Leuconostoc mesenteroides NTM048 shows adjuvant activity to promote IgA antibody responses” (Gut Microbes, 2021):
One block for each molecule: values may come before it.

Columns and labels:
Test in all cases: fructose release, DNS method
Conditions in all cases: 20 mM sodium acetate pH 5.5, 1 mM CaCl2, 28°C, 5-200 mM sucrose
Gtf2 = system: T1, Gtf2; assay type: biochemical, Leuconostoc mesenteroides subsp. mesenteroides
T1 construct: signal peptide removed, C-terminal His6 (pET23b), E. coli BL21(DE3); full-length precursor 1479 residues; draft genome BOPR01000001
Description: fructose release, DNS method on Gtf2

[1] = substrate: OC[C@H]1O[C@@](CO)(O[C@H]2O[C@H](CO)[C@@H](O)[C@H](O)[C@H]2O)[C@@H](O)[C@@H]1O; assay type: biochemical, Leuconostoc mesenteroides
Description: fructose release, DNS method on LEUM1747

[2] = substrate: OC[C@H]1O[C@@](CO)(O[C@H]2O[C@H](CO)[C@@H](O)[C@H](O)[C@H]2O)[C@@H](O)[C@@H]1O; assay type: biochemical, Leuconostoc mesenteroides; remark: listed apart in the source
Description: fructose release, DNS method on LEUM1752

Km (Gtf2): 23 mM
Molecule: OC[C@H]1O[C@@](CO)(O[C@H]2O[C@H](CO)[C@@H](O)[C@H](O)[C@H]2O)[C@@H](O)[C@@H]1O [sucrose]

B1: LEUM1747 (Leuconostoc mesenteroides subsp. mesenteroides ATCC 8293) (protein)
chain: TPSVLGDSSVPDVSANNVQSASDNTTDTQQNTTVTEENDKVQSAATNDNVTTAASDTTQSADNNVTEKQSDDHALDNEKVDNKQDEVAQTNVTSKDEESAVASTDTDPAETTTDETQQVSGKYVEKDGSWYYYFDDGKNAKGLSTIDNNIQYFDESGKQVKGQYVTIDNQTYYFDKDSGDELTGLQSIDGNIVAFNDEGQQIFNQYYQSENGTTYYFDDKGHAATGIKNIEGKNYYFDNLGQLKKGFSGVIDGQIMTFDQETGQEVSNTTSEIKEGLTTQNTDYSEHNAAHGTDAEDFENIDGYLTASSWYRPTDILRNGTDWEPSTDTDFRPILSVWWPDKNTQVNYLNYMADLGFISNADSFETGDSQSLLNEASNYVQKSIEMKISAQQSTEWLKDAMAAFIVTQPQWNETSEDMSNDHLQNGALTYVNSPLTPDANSNFRLLNRTPTNQTGEQAYNLDNSKGGFELLLANDVDNSNPVVQAEQLNWLYYLMNFGTITANDADANFDGIRVDAVDNVDADLLQIAADYFKLAYGVDQNDATANQHLSILEDWSHNDPLYVTDQGSNQLTMDDYVHTQLIWSLTKSSDIRGTMQRFVDYYMVDRSNDSTENEAIPNYSFVRAHDSEVQTVIAQIVSDLYPDVENSLAPTTEQLAAAFKVYNEDEKLADKKYTQYNMASAYAMLLTNKDTVPRVYYGDLYTDDGQYMATKSPYYDAINTLLKARVQYVAGGQSMSVDSNDVLTSVRYGKDAMTASDTGTSETRTEGVGVIVSNNAELQLEDGHTVTLHMGAAHKNQAYRALLSTTADGLAYYDTDENAPVAYTDANGDLIFTNESIYGVQNPQVSGYLAVWVPVGAQQDQDARTASDTTTNTSDKVFHSNAALDSQVIYEGFSNFQAFATDSSEYTNVVIAQNADQFKQWGVTSFQLAPQYRSSTDTSFLDSIIQNGYAFTDRYDLGYGTPTKYGTADQLRDAIKALHASGIQAIADWVPDQIYNLPEQELATVTRTNSFGDDDTDSDIDNALYVVQSRGGGQYQEMYGGAFLEELQALYPSLFKVNQISTGVPIDGSVKITEWAAKYFNGSNIQGKGAGYVLKDMGSNKYFKVVSNTEDGDYLPKQLTNDLSETGFTHDDKGIIYYTLSGYRAQNAFIQDDDNNYYYFDKTGHLVTGLQKINNHTYFFLPNGIELVKSFLQNEDGTIVYFDKKGHQVFDQYITDQNGNAYYFDDAGVMLKSGLATIDGHQQYFDQNGVQVKDKFVIGTDGYKYYFEPGSGNLAILRYVQNSKNQWFYFDGNGHAVTGFQTINGKKQYFYNDGHQSKGEFIDADGDTFYTSATDGRLVTGVQKINGITYAFDNTGNLITNQYYQLADGKYMLLDDSGRAKTGFVLQDGVLRYFDQNGEQVKDAIIVDPDTNLSYYFNATQGVAVKNDYFEYQGNWYLTDANYQLIKGFKAVDDSLQHFDEVTGVQTKDSALISAQGKVYQFDNNGNAVSA
notes: signal peptide removed, C-terminal His6 (pET23b), E. coli BL21(DE3)
Km [1]: 2.5 × 10^1 ± 0.2 mM
kcat/Km [1]: 1400 M⁻¹ s⁻¹

B2: LEUM1752 (Leuconostoc mesenteroides subsp. mesenteroides ATCC 8293) (protein)
chain: DVSQNNGVVVATAVDQSNLDATTSDKSITTDDKAATTAATSTDDKATTTVATSTDDKDTTTAATSTDDKATTTVATSTDDKATTTAATSTDDKAATTAATSTDDKAATTAATSTDDKAATTADTSTDDKAATTAATSTDDKATTTAATSTDDKTATTVGTSDNNNSATASDKDVSSSAQKSQTIDNNSKTADTTAALEASSKNLKTIDGKTYYYDDDDQVKKNFATVIDGKVLYFDKETGALADTNDYQFLEGLTSENNTYTEHNASVGTSSDSYTNVDGYLTADSWYRPKDILVNGQNWESSKDDDLRPLLMTWWPDKATQVNYLNAMKYLDATETETVYTSDDSQDALNKAAQNIQVKIEEKISQEGQTQWLKDDISKFVDSQSNWNIASESKGTDHLQGGALLYVNSDKTPDANSDYRLLNRTPTNQTGTPLYTTDPTQGGYDFLLANDVDNSNPVVQAEQLNWMYYLLNFGSITNNDADANFDSIRVDAVDNVDADLLQIAADYFKAAYGVDKSDAISNQHVSILEDWSDNDAEYVKDNGDNQLSMDNKLRLSLKYSLTMPAVDQYGNKRSGLEPFLTNSLVDRTNDSTDNTAQPNYSFVRAHDSEVQTVIAEIIKQRIDPDSDGLSPTMDQLTEAFKIYNADQLKTDKEFTQYNIPSTYATILTNKDTVPRVYYGDMYTDDGQYMATKSLYYDAIDTLLKSRIKYVSGGQTMSMKYMQGDSSMAADSYRGILTSVRYGNGAMTATDAGTNETRTQGIAVIESNNPDLKLSSTDQVVVDMGIAHKNQAYRPALLTTKDGIDTYVSDSDVSQSLIRYTNSNGQLIFNSSDIVGTANPQVSGYLAVWVPVGASDTQDARTESSTATTADGQTLHSNAALDSQVIYESFSNFQSTPTTEAEYANVQIANNTDLYKSWGITNFEFPPQYRSSTDSSFLDSIIQNGYAFTDRYDLGFNTPTKYGTVDQLRTAIKALHATGIKAMADWVPDQIYNLTGKEVVAVQRVNNSGIYNQDSVINKTLYASQTVGGGEYQALYGGEFLDEIKKLYPSLFEKNQISTGVPMDASEKIKEWSAKYFNGTNIQGRGAYYVLKDWATNEYFKVSTSSNSSVFLPKQLTNEESNTGFISTDGGMTYYSTSGYQAKDTFIQDDKSNWYYFDKNGYMTYGFQTVNDNNYYFLPNGIELQDAILEDSKGNVYYFNQYGKQAVDGYYMLANKTWRYFDKNGVMANAGLTTVTVDGQEHIQYFDKNGIQVKGTSVKDADGKLRYFDTDSGDMVTNRFGENTDGTWSYFGADGIAVTGAQTISGQKLFFDADGQQIKGKEATDKKGKVHYYDANSGEMITNRFEKLSDGSWAYFNKKGNIVTGAQVINGQHLFFESNGNQVKGREYTATDGKMRYYDADSGDMVTNRFERISDGSWAYFGANGVAVTGEQNINGQQLYFDANGHQVKGAAVTQADGSQKYYDANSGEMIKS
notes: as for B1
Km [2]: 1.9 × 10^1 ± 0.1 mM
kcat/Km [2]: 1300 M⁻¹ s⁻¹
